Results published in the supplement of paper PMC5998384.

Assays:
[1] = test system: HeLa Kyoto; experiment: thermal stability score vs G1/S (z-score of summed log2 fold changes over temperatures); higher = more thermally stable than in G1/S
[2] = test system: HeLa Kyoto; experiment: solubility change mitosis vs G1/S (difference of NP-40 vs SDS log2 ratios) (log2 ratio difference); higher = more soluble in mitosis
[3] = test system: HeLa Kyoto; experiment: melting temperature (median over replicates), in situ; higher = more thermally stable
[4] = test system: HeLa Kyoto; experiment: solubility in G1/S (NP-40 vs SDS abundance) (log2 ratio); higher = more soluble; details: cell cycle stage: G1/S
[5] = cell cycle stage: early G1 (4.5 h after nocodazole release)
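Wherever melting temperature (median over replicates), in situ is given: HeLa Kyoto cells synchronized by double thymidine or nocodazole block, proteins quantified by TMT10plex mass spectrometry, three independent biological replicates.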
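Wherever solubility change mitosis vs G1/S (difference of NP-40 vs SDS log2 ratios) is given: synchronized HeLa Kyoto cells (double thymidine block for G1/S, nocodazole release for mitosis), protein amounts in NP-40 versus SDS lysates quantified by mass spectrometry, three biological replicates.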
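Wherever solubility in G1/S (NP-40 vs SDS abundance) is given: HeLa Kyoto cells arrested at G1/S by double thymidine block, proteins quantified by TMT10plex mass spectrometry in mild NP-40 versus SDS extracts, three biological replicates.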
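Wherever thermal stability score vs G1/S (z-score of summed log2 fold changes over temperatures) is given: synchronized HeLa Kyoto cells, proteins quantified by TMT10plex mass spectrometry, three biological replicates, mitosis taken 0.5 h after nocodazole release, G1/S directly after double thymidine block.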

Row | Sequence | thermal stability score [1, 5] | thermal stability score ([1]; cell cycle stage: mitosis) | solubility change mitosis (log2) [2] | melting temperature ([3]; cell cycle stage: G1/S) | melting temperature ([3]; cell cycle stage: mitosis) | solubility in G1/S (log2) [4]
1 | MAAAGGAEGRRAALEAAAAAAPERGGGSCVLCCGDLEATALGRCDHPVCYRCSTKMRVLCEQRYCAVCREELRQVVFGKKLPAFATIPIHQLQHEKKYDIYFADGKVYALYRQLLQHECPRCPELPPFSLFGDLEQHMRRQHELFCCRLCLQHLQIFTYERKWYSRKDLARHRMQGDPDDTSHRGHPLCKFCDERYLDNDELLKHLRRDHYFCHFCDSDGAQDYYSDYAYLREHFREKHFLCEEGRCSTEQFTHAFRTEIDLKAHRTACHSRSRAEARQNRHIDLQFSYAPRHSRRNEGVVGGEDYEEVDRYSRQGRVARAGTRGAQQSRRGSWRYKREEEDREVAAAVRASVAAQQQEEARRSEDQEEGGRPKKEEAAARGPEDPRGPRRSPRTQGEGPGPKETSTNGPVSQEAFSVTGPAAPGCVGVPGALPPPSPKLKDEDFPSLSASTSSSCSTAATPGPVGLALPYAIPARGRSAFQEEDFPALVSSVPKPGTAPTSLVSAWNSSSSSKKVAQPPLSAQATGSGQPTRKAGKGSRGGRKGGPPFTQEEEEDGGPALQELLSTRPTGSVSSTLGLASIQPSKVGKKKKVGSEKPGTTLPQPPPATCPPGALQAPEAPASRAEGPVAVVVNGHTEGPAPARSAPKEPPGLPRPLGSFPCPTPQEDFPALGGPCPPRMPPPPGFSAVVLLKGTPPPPPPGLVPPISKPPPGFSGLLPSPHPACVPSPATTTTTKAPRLLPAPRAYLVPENFRERNLQLIQSIRDFLQSDEARFSEFKSHSGEFRQGLISAAQYYKSCRDLLGENFQKVFNELLVLLPDTAKQQELLSAHTDFCNREKPLSTKSKKNKKSAWQATTQQAGLDCRVCPTCQQVLAHGDASSHQALHAARDDDFPSLQAIARIIT [ZNF598] | -1.86 | -0.526 | 0.108 | 51.6 °C | 51.1 °C | -0.223
2 | MAAAGLVAVAAAAEYSGTVASGGNLPGVHCGPSSGAGPGFGPGSWSRSLDRALEEAAVTGVLSLSGRKLREFPRGAANHDLTDTTRADLSRNRLSEIPIEACHFVSLENLNLYQNCIRYIPEAILNLQALTFLNISRNQLSTLPVHLCNLPLKVLIASNNKLVSLPEEIGHLRHLMELDVSCNEIQTIPSQIGNLEALRDLNVRRNHLVHLPEELAELPLIRLDFSCNKITTIPVCYRNLRHLQTITLDNNPLQSPPAQICIKGKVHIFKYLNIQACKIAPDLPDYDRRPLGFGSCHEELYSSRPYGALDSGFNSVDSGDKRWSGNEPTDEFSDLPLRVAEITKEQRLRRESQYQENRGSLVVTNGGVEHDLDQIDYIDSCTAEEEEAEVRQPKGPDPDSLSSQFMAYIEQRRISHEGSPVKPVAIREFQKTEDMRRYLHQNRVPAEPSSLLSLSASHNQLSHTDLELHQRREQLVERTRREAQLAALQYEEEKIRTKQIQRDAVLDFVKQKASQSPQKQHPLLDGVDGECPFPSRRSQHTDDSALCMSLSGLNQVGCAATLPHSSAFTPLKSDDRPNALLSSPATETVHHSPAYSFPAAIQRNQPQRPESFLFRAGVRAETNKGHASPLPPSAAPTTDSTDSITGQNSRQREEELELIDQLRKHIEYRLKVSLPCDLGAALTDGVVLCHLANHVRPRSVPSIHVPSPAVPKLTMAKCRRNVENFLEACRKIGVPQEQLCLPLHILEEKGLSQVAVTVQALLELAPPKQQQHQLSAV [LRCH3] | 0.000114 | 1.36 | -0.0597 | 46.9 °C | 48.8 °C | 0.108
3 | MAAAGPSTRASSAAAAAALSRRGRRGRCDETAAAKTGAPGPASGPSLLVLSPPLLQPPLPPRPEESGCAGCLEPPGEAAALPCGHSLCRGCAQRAADAAGPGCPRCRARGPGWARRRARDDGQADSEVLGECARRSQPERCRPRRDGGAAAAGPRPEQEPRAAPAEPDFIFRAPIKLSKPGELREEYESLRKLREEKLQEEKPSEDQIHKLLPEDTETGKRKMDEQKKRDEPLVLKTNLERCPARLSDSENEEPSRGQMTQTHRSAFVSKNNSYSLAFLAGKLNSKVERSQSCSDTAQERAKSRVRAVPGNKAKVTTMTPASNPIIGVLLSTQNNRCVSAPDLTIEKRLPFSSLSSLASLHKPERSVSPESNDSISEELNHFKPIVCSPCTPPKRLPDGRVLSPLIIKSTPRNLNRSLQKQTSYEASPRILKKWEQIFQERQIKKTLSKATLTSLAPEMGEELLGSEGIHSSKEKPLVAVNTRLSGGQVLSEYTGPTSADLDHFPSVSQTKAEQDSDNKSSTEIPLETCCSSELKGGGSGTSLEREQFEGLGSTPDAKLDKTCISRAMKITTVNSVLPQNSVLGGVLKTKQQLKTLNHFDLTNGVLVESLSEEPLPSLRRGRKRHCKTKHLEQNGSLKKLRQTSGEVGLAPTDPVLREMEQKLQQEEEDRQLALQLQRMFDNERRTVSRRKGSVDQYLLRSSNMAGAK [RNF169] | 0.359 | 0.101 | 0.36 |  | 51.8 °C | -0.158
4 | MAAAGRLPSSWALFSPLLAGLALLGVGPVPARALHNVTAELFGAEAWGTLAAFGDLNSDKQTDLFVLRERNDLIVFLADQNAPYFKPKVKVSFKNHSALITSVVPGDYDGDSQMDVLLTYLPKNYAKSELGAVIFWGQNQTLDPNNMTILNRTFQDEPLIMDFNGDLIPDIFGITNESNQPQILLGGNLSWHPALTTTSKMRIPHSHAFIDLTEDFTADLFLTTLNATTSTFQFEIWENLDGNFSVSTILEKPQNMMVVGQSAFADFDGDGHMDHLLPGCEDKNCQKSTIYLVRSGMKQWVPVLQDFSNKGTLWGFVPFVDEQQPTEIPIPITLHIGDYNMDGYPDALVILKNTSGSNQQAFLLENVPCNNASCEEARRMFKVYWELTDLNQIKDAMVATFFDIYEDGILDIVVLSKGYTKNDFAIHTLKNNFEADAYFVKVIVLSGLCSNDCPRKITPFGVNQPGPYIMYTTVDANGYLKNGSAGQLSQSAHLALQLPYNVLGLGRSANFLDHLYVGIPRPSGEKSIRKQEWTAIIPNSQLIVIPYPHNVPRSWSAKLYLTPSNIVLLTAIALIGVCVFILAIIGILHWQEKKADDREKRQEAHRFHFDAM [ITFG1] | 0.328 | 0.713 | -0.259 | 55.9 °C | 57.5 °C | 0.327
